Reference: the nanobody polyreactivity screen of Harvey et al. (2022)

Experiment: yeast display, Sf9 membrane polyspecificity reagent, FACS + sequencing; frameworks hold sequencing errors
In short: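 Galactose induction of a Saccharomyces cerevisiae BJ5465 synthetic nanobody display library ran 36–48 hours. The cells were then stained for 1 hour at 4 °C with 10% biotinylated, detergent-solubilized Sf9 membrane reagent, pulled down on streptavidin microbeads and FACS-sorted into low and high (top ~1%) gates on expression and reagent-binding fluorescence. Labels for polyreactivity follow the gate of origin.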

Row | Sequence | polyreactivity (PSR sort gate)
1 | QVQLVESGGGLVQAGGSLRLTCAASGITLLYNAMGWYRQAPGKESELVAGITGRGGSTYYADSVKGRFTISRDNAKNTVYLQMNSLKPEDTAVYYCAATTDYRYVGRIVIRDEHWGQGTQVTVSS | low polyreactivity
2 | QVQLVESGGGLVQAGGSLRLICAASGRIFLTYAMGWYRQAPGKERELVAAISTSGTRTYYADSVKGRFTISRDTAKKTVYLQMNSLKPEDTAVYHCAREKYNYRTYEYWGQGTQVTVSS | high polyreactivity
3 | QVQLVESGGGLVQAGGSLRLSCAASGRTLKYYAMGWYRQAPGKERELVAAITWSGTRTFYADSVKGRFTISRDNAKNTVYLQMNSLKPEDTAVYYCARTYYGGAGYEYWGQVTQVTVSS | high polyreactivity
4 | QVQLVESGGGLVQAGGSLRLSCAASGRTFPPYAMGWYRQAPGKERELVAAIRWSGGDTYYADSVKGRFTISRDNAKNTVYLQMNSLKPEDTAVYYCNAVYYSYSYGYNYWGQGTQVTVSS | high polyreactivity
5 | QVQLVESGGGLVQAGGSLRLSCAASVRTSRLYAMGWYRQAPGKERELDASITRGGSTYADSVKGRFTISRDNAKNTVYLQMNSLKPEDTAVDYCNAELYVPPYDDDYWGQGTQVTVSS | high polyreactivity
6 | QVQLVESGGGLVQAGGSLRLSCAASGRIFGTYAMGWYRQAPGKERELVDAISSSGTSTYYADSVKGRFTISRDNAKTTVYLQMNSLPPEDTAVYYCAVEAIDYAYAYYFRLGYDYWGQGTQVTVSS | low polyreactivity
7 | QVQLVESGGGLVQAGGSLRLSCAASGFTFQRYAMGWYRQAPGKERELVAAISGSGGSTYYADSVKGRFTISRDNAKNTVYLQMNSLKPEDTAVYYCAARYKYKDLYRYDYWGQGTQVTVSS | high polyreactivity
8 | QVQLVESGGGLVQAGGSLRLSCAASGFIFQQNAMGWYRQAPAKERELVAAINRSGGSTNYADSVKGRFTISRDNAKNTVYLQMNSLKPEDTAVYYCATNGRSFVSKSTMYYWGQGTQVTVSS | high polyreactivity
9 | QVQLVESGGGLVQAGGRLRLSCAASGLTLRWYAMGWYRQAPGKERELVAVISGSGSTNYADSVKGRFTISRDNAKNTVYLQMNSLKPEDTAVYYCAAQSHLGTPQRFGYWGQGTQVTVSS | low polyreactivity
10 | QVQLVESGGGLVQAGGSLRLSCAASGSIFGRNAMGWYRQAPGKERELVAAINSGGSTNYADSVKGRFTISRDNAKNTVYLQMNSLKPEDTAVYYCAARTYSSGRYYGYVAFYYWGQGTQVTVSS | high polyreactivity
11 | QVQLVESGGGLVQAGGSLRLSCAASGRTFYTYAMGWYRQAPGKARELVAAISSSGSTYYADSVKGRFTISRDNAKNTVDLQMNSLKPEDTAGYYCNARTSRYRRGGDSWGQGTQVTVSS | high polyreactivity
12 | QVQLVESGGALVQAGGSLRLICAASGSTFDSNVKGWSRTAPGKERELVAVINGSGSNTYYADSVKGRFTISRDNAKNTVYLQMNSLKPEDTAVYYCNKRYWGGRYGYDYWGQGTQVTVSS | high polyreactivity
13 | QVQLVESGGGLVQAGGSLRVSCAASGFTFTRYTMGWYRQAPGKEWELVAAITRSGGNTYYADSVKGRFTISRDNAKNTVYLQMNSLKPEDTAVYYCAARQVSGIGPYDYWGQGTQVTVSS | high polyreactivity
14 | QVQLVESGGGLVQAGCSLRLSCAASGSTFRYYAMGWYRQAPGKERELVAAINRSGGSTYYADSVKGRFTISRDNAKNTVYLQMYSLKPEDTAVYYCAAPWARHYSNPDDYWGQGTQVTVSS | high polyreactivity
15 | QVQLVQSGGGLVQAGGSLRLSCAASGYTFYVNTMGWYRKAPGKERELVAVISSGGRTNYADSVKGRFTISRDNAKNTVYLQMNSLKPEDTAVYYCAAIGWRTRYRFEYWGIGTQVTVSS | high polyreactivity
16 | QVQHVESGGGLVQAGRSLRLSCAASGILRRYAMGWYIQERGKERELVAAITRTGGRTYYADSVKGRFTISRDNAKNTVYLQMNSLKPEDTAVYYCATDRYVVSGMDYWGQGTQVTVSS | high polyreactivity
17 | QVQLVESGGGLVQAGGSLRLSCAASGSTFYQNAMGWYRQAPGKERELVAAISRSGGGTYYADSVKGRFTISRDNAKNTVYLQMNSLKPEDTAVYYCAVRPTYNSWTRSTSRYYYWGQGTQVTVSS | high polyreactivity
18 | QDQHVESGGGLVQAGGSLRLSCAASGSTFRYYAMGWYRQRPGKESEMVAAITRRGGSTYYADSVKGRFTISRDNAKYTVYLQMNSLKQADTAVYYCAAYRIYYSGYGYYYYWGQGTQVTVSS | high polyreactivity
19 | QVQLVESGGGLVQAGRTLRLSCAASGSNFSVYVMGWYRQAPGKEWELVAAISWSDSDTYYADSVKGRFTISRDNATNNVYLLMNSLNPEDTAVYYCAAETFDYHDYIANGSGEYDYWGQGNQVTVSS | high polyreactivity
20 | QVQLVESGGGLVQAGGSLRLSCAASGRISAFNAMGWYRQAPGKERELVAAINVSGGNTYYADSVKGRFTISRDNAKNTVYLQMNSLKPEDTAVYYCAAERRRWGLDYYYWGQGTQVTVSS | high polyreactivity
21 | QVQLVESGGGLVQAGVSLRLSCAASGSTFVSNAMGWYRQAPGKERELVAAISWSGVRTYYADSVKGRITISRDNAKNTVYLQMNSLKPEDTAVYYCSKRIYGSRSSRFNYWGQGTQLTVSS | high polyreactivity
22 | QVQLVESGGGLVQAVGSLRLSCAASGIIFDSYAMGWYRQAPGKERELVAAITSRGGRTYYADSVKGRFTISRDNAKNTVYLQMNSLKPEDTAVYYCAADDGWIEPVYGYYEHEYWGQGTQVTVSS | low polyreactivity

Row | Sequence | polyreactivity (PSR sort gate)
23 | QVQLVESGGGLVQGGGSLRLSCDASGCNFRKNAMGWYRQAPGKERDLVAAISWDGDNTYADSVKGRFTISRDNAMNNVYLQLYSLKPVYTAVSYCAAETFTYYDYWGQGTQVNVSS | high polyreactivity
24 | QVQLVESGGGLVQAGGRLRLSCAASGSIFDRNAMGLYRQAPGKESELVATITWYGVSTYYADSVKGRFTISRDNAKNTVYLQMNSLKPEDTAVYYCNADYSYRHWYDPGHYGEAMGYWGQGTQVTVSS | low polyreactivity
25 | QVQLVESGGGLVQAGGSLRLSCPASGRTFNWNAMGWYRKAPGKERELVADISIRGGSTNYADSVKGRFTISRDNAKNTVYLQMNSLKPEDTAVYYCAAEYYDSGNDYWGQGTQVTVSS | low polyreactivity
26 | QVQLVESGGGLVQAGGSLRLSCAASGYTFVRYALGWYRQAPGKEMELVAAMSRSGGSTYYADSVKGRFTISRDNAKNTVYLQMNSLKPEDTAVYYCNAYPYSYYDYDYWGQGTQVTVSS | high polyreactivity
27 | QVQLVESGGGLVQAGGSLRLSCADSGFTFRYNAMGWYRQAPGKERELVAAISRSGGRTYYADSVKGRFTISRDNAKNTVYLQMNSLKPEDSAVYYCAAVAARITGYGYWGQGTQVTVSS | high polyreactivity
28 | QVQLLESGGGLVQAGGSLRLSCAASGSIFYWNAMGWYIQARGKERELLAAINYSGDSTYDADSVKGAFTISRDNAKNTVYLQMNSLKPEDTAVYYCNFDYWGQGTQVTVSS | low polyreactivity
29 | QVQLVESGGGLVQAGGSLRLSCAASGSTFADNAMGWYRQAPGKERELVATITDGGSTNYADSVKGRFTISRDNAKNTVYLQMNSLKPEDTAVYYCNADTHARWTGVKGTYSDYDYWGQGTQVTVSS | low polyreactivity
30 | QVQLVESGGGLVQAGGSLRLSCAASGSIFYYNSMGWYRKAPGKEREFVAAISARGGSTYYADSVKGRFTISRDNAKNTVYLQLNSLKPEDSAVYYCAASWGMGTYSDSTFWGGYYYWGQGTQVTVSS | low polyreactivity
31 | QVQLVESGGGLVQAGGSLRLSCAASGRIFYLYTMGWYRQAPGKEREFSTYYADSVKGRFTISRDNAKNTVYLQMNCLKPEDTAVYYCAAADHPPVWYGYWGQGTQVTVSS | low polyreactivity
32 | QVQLVESGGGLVQAGGSLRLSCAASGRIFIWYGMGCYRQAPGKERELVADISSTGSTNYADSVKGRFTISRDNAKNTVYLQMNSLKPEDTAVYYCAADPETPYYTTYDYDYWGQGTQVTVSS | low polyreactivity
33 | QVQLVESGGGLVQAGGSLRLSCAASGNTLYQYAMGWYRQAPGKERELVASITWSGSSTYYADSVKGRFTISRDNAKNTDDLQMNSLKPEDPAVYYCAAVVYYTFDYCGQGTQVTVSS | low polyreactivity
34 | QVHLVESGGGLVQEGGSLRLSCAASGSIFQYYAMGWYIQAPGKERELVAAISWRSGRTYYADSVKGRFTISRDNAKNTVYLQMNSLKPEDTAVYYCIRGYARDYDYWGQGTQVTVSS | high polyreactivity
35 | QVQLVESGGGLVQAGGSLRLSCADSGRIIYLNAMGLYRQAPGKERELVAAITRSAASTHYADSVKGRFTISRDNAKNTVYLQMNSLKPEDTAVYYCNARGYPKSWRYSRGYEYWGQGTQVTVSS | low polyreactivity
36 | QVHLVESGGGLVQAGGSLRLSCAASGSIFSSNTMGWYRQATGKERELVAAISWSGGRTRYADSVKGRFTISRDNAKNTVYLQMNSLKPEDNAVYYCNAGTVASTLYDVRTHFDYWGQGTQVTVSS | low polyreactivity
37 | QVQLVESGGGLVQAGGSLPLSCAASGSTFSPYDMGWYIQAPGKDRELVAVITGSDGTYYADSVKGRFTITRDNAKNTVYVQMNSLKPEDTAVYYCATDWNFGRWYTLGVEMDYWGQGTQVTVSS | low polyreactivity
38 | HVQLVESGGGLVQAGGSLRLSFAASGRIFTHNAMGLYRKAPGKERELVAAITSGGRTTYADSVKGRFTISRDNAKNTVYLQMNSLKPEDTAVYYCNADTGLGSLDFDKRDYWGQGTQVTVSS | low polyreactivity
39 | QDQLVESVGGLVQAGGSLRLSCAASGSTIVRNAMGWYRQPPGKERELVAAISVDSGSTYYADSVKGRFTISRDNAKNTVYLQMNSLKPEDTAVYYCAADGTRGQEYDYWGQGTLVTVSS | low polyreactivity
40 | QVQLVESGGGLVQAGGRLRLSCAASGSTIPPSAMGWYRQSPGKERELVAAITSGGSTYYADSVKGRLTISRDNAKNTVYIQLNSLKPEDTAVYYCNADQQTIRSAKNDYWGQGTQVTVSS | low polyreactivity
41 | QVQLVESGGGLVQAGGSLRLSCAASGSTLPNNAMGWYRQAPGKERELVAAISSSGGSTYYADSVKGRFTISRDNAKNTVYLQMNSLKPEDTAVYYCAAVYSRGTYNYWGQGTQVTVSS | high polyreactivity
42 | QVQLVESGGGLVQAGGSLRLSCAASGIIFKSYAMGWYRQAPGKERELVAAITKRGGSTYYADSVKGRFTISRDNAKNTVYLQMNSLKPEDTAVYYCAADDGVGNTDDYWGQGTQVTVSS | high polyreactivity
43 | QVQLVESGGGLVQAGGSLRLSCAGSGSTFPRYPMGWYRQAPGKERELVAAISYSGGRTYYADSVKGRFTISRDYAKNTVYLQMNSLKAEDTAVYYCKKRWRGAGTSYDYWGQGTQGTVSS | high polyreactivity
